tested on: MBP-His8-MilO (Streptoverticillium rimofaciens (Streptomyces rimofaciens)); test: fluorescence polarization; settings: EMSA: 20 mM Tris-HCl pH 8.0, 100 mM KCl, 2.5 mM MgCl2, 0.2 mM DTT, 10% glycerol, salmon sperm DNA, 30 C 10 min (Fig 5 legend: room temperature); FP: 20 mM Tris …

Binding signal (fold decrease in affinity vs OBSWT), 3:
CACTATTTAATCGTGTCGCTCGGTGGTGTCCGCCGGTGCCCCGG (double strand) [OBSM1]
TGTCGCCCGGTCGTATTATCTAACGGTGTCCGCCGGTGCCCCGG (double strand) [OBSM2]
TGTCGCCCGGTCGTGTCGCTCGGTGGCGCCTATCAACGCCCCGG (double strand) [OBSM3]

Source: PMC11784345
